Test results published in the supplement of paper PMC11246515.
± gives the standard deviation of the averaged measurements.

Assay: total protein half-life in vivo (active degradation + dilution); higher = more stable protein
[1] = wild type E. coli NCM3722, growth: C-lim chemostat, doubling time 3 h
[2] = wild type E. coli NCM3722, growth: C-lim chemostat, doubling time 6 h
[3] = wild type E. coli NCM3722, growth: C-lim chemostat, doubling time 12 h
[4] = E. coli NCM3722 delta-hslV, growth: N-lim chemostat, doubling time 6 h
[5] = wild type E. coli NCM3722, growth: N-lim chemostat, doubling time 6 h
[6] = wild type E. coli NCM3722, growth: N-lim chemostat, doubling time 12 h
[7] = wild type E. coli NCM3722, growth: P-lim chemostat, doubling time 12 h
[8] = E. coli NCM3722 delta-clpP delta-lon delta-hslV, growth: N-lim chemostat, doubling time 6 h
[9] = E. coli NCM3722 delta-clpP, growth: N-lim chemostat, doubling time 6 h
[10] = E. coli NCM3722 delta-lon, growth: N-lim chemostat, doubling time 6 h
[11] = E. coli NCM3722 delta-smpB, growth: N-lim chemostat, doubling time 6 h
[12] = wild type E. coli NCM3722, growth: P-lim chemostat, doubling time 6 h

MSSVSTSGSGAPKSSFSFGRIWDQYGMLVVFAVLFIACAIFVPNFATFINMKGLGLAISMSGMVACGMLFCLASGDFDLSVASVIACAGVTTAVVINLTESLWIGVAAGLLLGVLCGLVNGFVIAKLKINALITTLATMQIVRGLAYIISDGKAVGIEDESFFALGYANWFGLPAPIWLTVACLIIFGLLLNKTTFGRNTLAIGGNEEAARLAGVPVVRTKIIIFVLSGLVSAIAGIILASRMTSGQPMTSIGYELIVISACVLGGVSLKGGIGKISYVVAGILILGTVENAMNLLNISPFAQYVVRGLILLAAVIFDRYKQKAKRTV [P0AE26]
total protein half-life in vivo [1]: 2.54 ± 0.33 h
total protein half-life in vivo [2]: 4.04 ± 0.19 h
total protein half-life in vivo [3]: 7.44 ± 0.65 h

MTDYAISKKSKRSLWIPILVFITLAACASAGYSYWHSHQVAADDKAQQRVVPSPVFYALDTFTVNLGDADRVLYIGITLRLKDEATRSRLSEYLPEVRSRLLLLFSRQDAAVLATEEGKKNLIAEIKTTLSTPLVAGQPKQDVTDVLYTAFILR [P0ABX8]
total protein half-life in vivo [1]: 1.72 ± 0.4 h
total protein half-life in vivo [2]: 2.16 ± 0.27 h
total protein half-life in vivo [3]: 3 ± 0.22 h

MLLAGAIFVLTIVLVIWQPKGLGIGWSATLGAVLALVTGVVHPGDIPVVWNIVWNATAAFIAVIIISLLLDESGFFEWAALHVSRWGNGRGRLLFTWIVLLGAAVAALFANDGAALILTPIVIAMLLALGFSKGTTLAFVMAAGFIADTASLPLIVSNLVNIVSADFFGLGFREYASVMVPVDIAAIVATLVMLHLYFRKDIPQNYDMALLKSPAEAIKDPATFKTGWVVLLLLLVGFFVLEPLGIPVSAIAAVGALILFVVAKRGHAINTGKVLRGAPWQIVIFSLGMYLVVYGLRNAGLTEYLSGVLNVLADNGLWAATLGTGFLTAFLSSIMNNMPTVLVGALSIDGSTASGVIKEAMVYANVIGCDLGPKITPIGSLATLLWLHVLSQKNMTISWGYYFRTGIIMTLPVLFVTLAALALRLSFTL [P0AB93]
total protein half-life in vivo [4]: 6.25 h
total protein half-life in vivo [5]: 5.83 h
total protein half-life in vivo [6]: 12.1 h
total protein half-life in vivo [7]: 13.8 ± 1.1 h

MNAVTEGRKVLLEIADLKVHFEIKDGKQWFWQPPKTLKAVDGVTLRLYEGETLGVVGESGCGKSTFARAIIGLVKATDGHVAWLGKELLGMKPDEWRAVRSDIQMIFQDPLASLNPRMTIGEIIAEPLRTYHPKMSRQEVRERVKAMMLKVGLLPNLINRYPHEFSGGQCQRIGIARALILEPKLIICDEPVSALDVSIQAQVVNLLQQLQREMGLSLIFIAHDLAVVKHISDRVLVMYLGHAVELGTYDEVYHNPLHPYTRALMSAVPIPDPDLEKNKTIQLLEGELPSPINPPSGCVFRTRCPIAGPECAKTRPVLEGSFRHSVSCLKVDPL
total protein half-life in vivo [8]: 5.54 ± 0.093 h
total protein half-life in vivo [9]: 5.82 ± 0.9 h
total protein half-life in vivo [4]: 4.61 ± 0.15 h
total protein half-life in vivo [10]: 4.14 ± 0.14 h
total protein half-life in vivo [11]: 6.25 ± 1.4 h
total protein half-life in vivo [1]: 2.65 ± 0.51 h
total protein half-life in vivo [2]: 6.13 ± 1.6 h
total protein half-life in vivo [3]: 10.3 ± 0.15 h
total protein half-life in vivo [5]: 5.03 ± 0.17 h
total protein half-life in vivo [6]: 8.26 ± 0.85 h
total protein half-life in vivo [12]: 5.69 ± 0.078 h
total protein half-life in vivo [7]: 12.15 ± 0.025 h

MSLNLVSEQLLAANGLKHQDLFAILGQLAERRLDYGDLYFQSSYHESWVLEDRIIKDGSYNIDQGVGVRAISGEKTGFAYADQISLLALEQSAQAARTIVRDSGDGKVQTLGAVEHSPLYTSVDPLQSMSREEKLDILRRVDKVAREADKRVQEVTASLSGVYELILVAATDGTLAADVRPLVRLSVSVLVEEDGKRERGASGGGGRFGYEFFLADLDGEVRADAWAKEAVRMALVNLSAVAAPAGTMPVVLGAGWPGVLLHEAVGHGLEGDFNRRGTSVFSGQVGELVASELCTVVDDGTMVDRRGSVAIDDEGTPGQYNVLIENGILKGYMQDKLNARLMGMTPTGNGRRESYAHLPMPRMTNTYMLPGKSTPQEIIESVEYGIYAPNFGGGQVDITSGKFVFSTSEAYLIENGKVTKPVKGATLIGSGIETMQQISMVGNDLKLDNGVGVCGKEGQSLPVGVGQPTLKVDNLTVGGTA [P0AGG8]
total protein half-life in vivo [8]: 5.22 ± 1.1 h
total protein half-life in vivo [9]: 3.75 ± 0.12 h
total protein half-life in vivo [4]: 3.805 ± 0.0063 h
total protein half-life in vivo [10]: 4.52 ± 0.13 h
total protein half-life in vivo [11]: 3.73 ± 0.064 h
total protein half-life in vivo [1]: 2.74 ± 0.14 h
total protein half-life in vivo [2]: 5.14 ± 0.45 h
total protein half-life in vivo [3]: 8.1 ± 0.85 h
total protein half-life in vivo [5]: 3.88 ± 0.13 h
total protein half-life in vivo [6]: 6.45 ± 0.19 h
total protein half-life in vivo [12]: 5.11 ± 0.16 h
total protein half-life in vivo [7]: 11 ± 1.7 h

MTDLPDSTRWQLWIVAFGFFMQSLDTTIVNTALPSMAQSLGESPLHMHMVIVSYVLTVAVMLPASGWLADKVGVRNIFFTAIVLFTLGSLFCALSGTLNELLLARALQGVGGAMMVPVGRLTVMKIVPREQYMAAMTFVTLPGQVGPLLGPALGGLLVEYASWHWIFLINIPVGIIGAIATLLLMPNYTMQTRRFDLSGFLLLAVGMAVLTLALDGSKGTGLSPLTIAGLVAVGVVALVLYLLHARNNNRALFSLKLFRTRTFSLGLAGSFAGRIGSGMLPFMTPVFLQIGLGFSPFHAGLMMIPMVLGSMGMKRIVVQVVNRFGYRRVLVATTLGLSLVTLLFMTTALLGWYYVLPFVLFLQGMVNSTRFSSMNTLTLKDLPDNLASSGNSLLSMIMQLSMSIGVTIAGLLLGLFGSQHVSVDSGTTQTVFMYTWLSMALIIALPAFIFARVPNDTHQNVAISRRKRSAQ
total protein half-life in vivo [7]: 15.7 h

MIYLRKANERGHANHGWLDSWHTFSFANYYDPNFMGFSALRVINDDVIEAGQGFGTHPHKDMEILTYVLEGTVEHQDSMGNKEQVPAGEFQIMSAGTGIRHSEYNPSSTERLHLYQIWIMPEENGITPRYEQRRFDAVQGKQLVLSPDARDGSLKVHQDMELYRWALLKDEQSVHQIAAERRVWIQVVKGNVTINGVKASTSDGLAIWDEQAISIHADSDSEVLLFDLPPV
total protein half-life in vivo [9]: 4.3 ± 0.072 h
total protein half-life in vivo [4]: 4.52 ± 0.68 h
total protein half-life in vivo [10]: 4.67 ± 0.054 h
total protein half-life in vivo [11]: 4.36 ± 0.26 h
total protein half-life in vivo [1]: 2.84 ± 0.096 h
total protein half-life in vivo [2]: 5.31 ± 0.29 h
total protein half-life in vivo [3]: 8.6 ± 2.5 h
total protein half-life in vivo [5]: 4.51 ± 0.2 h
total protein half-life in vivo [6]: 7.3 ± 0.36 h
total protein half-life in vivo [12]: 5.54 ± 0.17 h
total protein half-life in vivo [7]: 11.6 ± 0.069 h

MAQIDFRKKINWHRRYRSPQGVKTEHEILRIFESDRGRIINSPAIRRLQQKTQVFPLERNAAVRTRLTHSMEVQQVGRYIAKEILSRLKELKLLEAYGLDELTGPFESIVEMSCLMHDIGNPPFGHFGEAAINDWFRQRLHPEDAESQPLTDDRCSVAALRLRDGEEPLNELRRKIRQDLCHFEGNAQGIRLVHTLMRMNLTWAQVGGILKYTRPAWWRGETPETHHYLMKKPGYYLSEEAYIARLRKELNLALYSRFPLTWIMEAADDISYCVADLEDAVEKRIFTVEQLYHHLHEAWGQHEKGSLFSLVVENAWEKSRSNSLSRSTEDQFFMYLRVNTLNKLVPYAAQRFIDNLPAIFAGTFNHALLEDASECSDLLKLYKNVAVKHVFSHPDVERLELQGYRVISGLLEIYRPLLSLSLSDFTELVEKERVKRFPIESRLFHKLSTRHRLAYVEAVSKLPSDSPEFPLWEYYYRCRLLQDYISGMTDLYAWDEYRRLMAVEQ
total protein half-life in vivo [8]: 5.23 ± 0.2 h
total protein half-life in vivo [9]: 5.726 ± 0.025 h
total protein half-life in vivo [4]: 6.52 ± 1.8 h
total protein half-life in vivo [10]: 5.63 ± 0.46 h
total protein half-life in vivo [11]: 5.16 ± 0.065 h
total protein half-life in vivo [1]: 3.281 ± 0.016 h
total protein half-life in vivo [2]: 6.17 ± 0.39 h
total protein half-life in vivo [3]: 11.6 ± 0.46 h
total protein half-life in vivo [5]: 6.14 ± 1.6 h
total protein half-life in vivo [6]: 11 ± 0.68 h
total protein half-life in vivo [12]: 5.52 ± 0.37 h
total protein half-life in vivo [7]: 12.2 ± 0.22 h

MPRLLTKRGCWITLAAAPFLLFLAAWGADKLWPLPLHEVNPARVVVAQDGTPLWRFADADGIWRYPVTIEDVSPRYLEALINYEDRWFWKHPGVNPFSVARAAWQDLTSGRVISGGSTLTMQVARLLDPHPKTFGGKIRQLWRALQLEWHLSKREILTLYLNRAPFGGTLQGIGAASWAYLGKSPANLSYSEAAMLAVLPQAPSRLRPDRWPERAEAARNKVLERMAVQGVWSREQVKESREEPIWLAPRQMPQLAPLFSRMMLGKSKSDKITTTLDAGLQRRLEELAQNWKGRLPPRSSLAMIVVDHTDMRVRGWVGSVDLNDDSRFGHVDMVNSIRSPGSVLKPFVYGLALDEGLIHPASLLQDVPRRTGDYRPGNFDSGFHGPISMSEALVRSLNLPAVQVLEAYGPKRFAAKLRNVGLPLYLPNGAAPNLSLILGGAGAKLEDMAAAYTAFARHGKAGKLRLQPDDPLLERPLMSSGAAWIIRRIMADEAQPLPDSALPRVAPLAWKTGTSYGYRDAWAIGVNARYVIGIWTGRPDGTPVVGQFGFASAVPLLNQVNNILLSRSANLPEDPRPNSVTRGVICWPGGQSLPEGDGNCRRRLATWLLDGSQPPTLLLPEQEGINGIRFPIWLDENGKRVAADCPQARQEMINVWPLPLEPWLPASERRAVRLPPASTSCPPYGHDAQLPLQLTGVRDGAIIKRLPGAAEATLPLQSSGGAGERWWFLNGEPLTERGRNVTLHLTDKGDYQLLVMDDVGQIATVKFVMQ
total protein half-life in vivo [8]: 5.44 h
total protein half-life in vivo [9]: 6.31 ± 1.1 h
total protein half-life in vivo [4]: 5.74 ± 0.091 h
total protein half-life in vivo [10]: 5.64 ± 0.55 h
total protein half-life in vivo [11]: 4.87 ± 1.3 h
total protein half-life in vivo [1]: 3.04 h
total protein half-life in vivo [3]: 11.2 h
total protein half-life in vivo [5]: 5.98 h
total protein half-life in vivo [6]: 13.92 ± 0.086 h
total protein half-life in vivo [12]: 6.15 ± 2 h
total protein half-life in vivo [7]: 9.01 ± 4 h

MAYSKIRQPKLSDVIEQQLEFLILEGTLRPGEKLPPERELAKQFDVSRPSLREAIQRLEAKGLLLRRQGGGTFVQSSLWQSFSDPLVELLSDHPESQYDLLETRHALEGIAAYYAALRSTDEDKERIRELHHAIELAQQSGDLDAESNAVLQYQIAVTEAAHNVVLLHLLRCMEPMLAQNVRQNFELLYSRREMLPLVSSHRTRIFEAIMAGKPEEAREASHRHLAFIEEILLDRSREESRRERSLRRLEQRKN [P0ACL9]
total protein half-life in vivo [8]: 5.54 ± 0.1 h
total protein half-life in vivo [9]: 5.3 ± 0.09 h
total protein half-life in vivo [4]: 4.94 ± 0.19 h
total protein half-life in vivo [10]: 4.33 h
total protein half-life in vivo [11]: 4.54 ± 0.35 h
total protein half-life in vivo [1]: 2.94 ± 0.1 h
total protein half-life in vivo [2]: 6.361 ± 0.042 h
total protein half-life in vivo [3]: 9.49 ± 0.8 h
total protein half-life in vivo [5]: 4.53 ± 0.67 h
total protein half-life in vivo [6]: 9.28 h
total protein half-life in vivo [12]: 5.59 ± 0.71 h
total protein half-life in vivo [7]: 11.2 ± 1.1 h
